Source: paper doi:10.1101/2024.02.14.580117
Where two headings read alike, the source gives them in different places.

Assays:
Experiment in all cases: EMSA
[1] = biological target: T1, Argonaute 2 (AGO2), loaded with miR-34a (Homo sapiens, UniProt Q9UKV8 1-859)
[2] = biological target: T1, Argonaute 2 (AGO2), loaded with miR-34a; remark: listed apart in the source
[3] = biological target: T1, Argonaute 2 (AGO2), loaded with miR-34a; remark: listed apart in the source
[4] = biological target: T1, Argonaute 2 (AGO2), loaded with miR-34a; remark: listed apart in the source
[5] = biological target: T1, Argonaute 2 (AGO2), loaded with miR-34a; remark: listed apart in the source

T1 sequence (Q9UKV8 whole entry): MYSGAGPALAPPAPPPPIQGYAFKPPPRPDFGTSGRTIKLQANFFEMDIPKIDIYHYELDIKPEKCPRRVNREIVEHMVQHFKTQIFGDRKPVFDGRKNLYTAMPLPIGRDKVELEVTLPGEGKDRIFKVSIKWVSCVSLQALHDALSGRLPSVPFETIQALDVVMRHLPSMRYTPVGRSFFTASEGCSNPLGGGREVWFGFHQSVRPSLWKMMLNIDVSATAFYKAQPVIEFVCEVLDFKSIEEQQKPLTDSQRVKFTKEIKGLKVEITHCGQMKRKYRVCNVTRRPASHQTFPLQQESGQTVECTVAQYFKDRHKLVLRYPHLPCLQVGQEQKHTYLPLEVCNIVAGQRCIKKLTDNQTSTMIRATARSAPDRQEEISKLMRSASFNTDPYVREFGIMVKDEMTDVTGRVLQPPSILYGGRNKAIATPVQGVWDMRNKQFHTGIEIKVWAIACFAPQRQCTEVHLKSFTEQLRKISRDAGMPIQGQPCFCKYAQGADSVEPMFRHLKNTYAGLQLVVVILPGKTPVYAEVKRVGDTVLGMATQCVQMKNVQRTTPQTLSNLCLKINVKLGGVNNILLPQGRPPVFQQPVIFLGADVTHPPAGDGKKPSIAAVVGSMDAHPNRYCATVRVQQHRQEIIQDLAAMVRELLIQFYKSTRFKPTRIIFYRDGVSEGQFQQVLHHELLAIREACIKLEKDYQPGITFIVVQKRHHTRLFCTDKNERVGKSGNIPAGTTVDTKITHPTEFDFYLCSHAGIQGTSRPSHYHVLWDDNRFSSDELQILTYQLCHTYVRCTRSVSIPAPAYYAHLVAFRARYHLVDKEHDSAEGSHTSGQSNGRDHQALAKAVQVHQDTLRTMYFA

Binder | Kd [1] | other results
miR-34a guide / PERFECT target (dsRNA, 5' phosphate on guide) RNA 1: UGGCAGUGUCUUAGCUGGUUGU RNA 2: ACAACCAGCUAAGACACUGCCA | 1.03 ± 0.46 nM | –
miR-34a guide / SIRT1 target (dsRNA, 5' phosphate on guide) RNA 1: UGGCAGUGUCUUAGCUGGUUGU RNA 2: ACACCCAGCUAGGACCAUUACUGCCA | – | Kd [2]: 2.68 ± 0.3 nM
miR-34a guide / NOTCH1 target (dsRNA, 5' phosphate on guide) RNA 1: UGGCAGUGUCUUAGCUGGUUGU RNA 2: ACUUUUAUUUUACACAGAAACACUGCCU | – | binding result [3]: binds
miR-34a guide / WNT1 target (dsRNA, 5' phosphate on guide) RNA 1: UGGCAGUGUCUUAGCUGGUUGU RNA 2: GGAGACCCCUUGUUGCACUGCCC | – | binding result [3]: binds
miR-34a guide / SCRseed target (dsRNA, 5' phosphate on guide) RNA 1: UGGCAGUGUCUUAGCUGGUUGU RNA 2: ACAACCAGCUAUCACACACGGA | – | binding result [4]: binds
miR-34a guide / BCL2 target (dsRNA, 5' phosphate on guide) RNA 1: UGGCAGUGUCUUAGCUGGUUGU RNA 2: UCGAAUCAGCUAUUUACUGCCA | 8.92 nM | –
miR-34a guide / PNUTS target (dsRNA, 5' phosphate on guide) RNA 1: UGGCAGUGUCUUAGCUGGUUGU RNA 2: AAAGUCACACUACAUGCACUGCCU | 14.5 ± 2.9 nM | –
miR-34a guide / CDK6 target (dsRNA, 5' phosphate on guide) RNA 1: UGGCAGUGUCUUAGCUGGUUGU RNA 2: UACUUUCUGCCACACACUGCCU | 26.9 ± 1.4 nM | –
miR-34a guide / HNF4a target (dsRNA, 5' phosphate on guide) RNA 1: UGGCAGUGUCUUAGCUGGUUGU RNA 2: AGGGCCACAUCCCACUGCCA | 38.9 nM | –
miR-34a guide / MTA2 target (dsRNA, 5' phosphate on guide) RNA 1: UGGCAGUGUCUUAGCUGGUUGU RNA 2: GGUACCUGGUUGGGGGAGGGGGGCGUGCACUGCCA | 66.1 ± 11.2 nM | –
miR-34a guide / DLL1 target (dsRNA, 5' phosphate on guide) RNA 1: UGGCAGUGUCUUAGCUGGUUGU RNA 2: CCGGCCGCCUGCGGCACUGCCU | 69.2 ± 14.1 nM | –
miR-34a guide / NOTCH2 target (dsRNA, 5' phosphate on guide) RNA 1: UGGCAGUGUCUUAGCUGGUUGU RNA 2: UCAGUGAUGAGGAGGACAACACUGCCU | – | Kd [5]: 496 ± 129 nM
